Experimental data reported in patent publication US20150140002A1, “USE OF A PCSK9 INHIBITOR TO TREAT […]” (Sanofi, priority 2013, published 2015).
Where “and” joins values, the source holds several entries; their conditions need not be identical. Equal values may be shown once.

What was measured:
[1] = tested on: patients with primary hypercholesterolemia (heFH and non-FH) who are intolerant to statins; conditions: in vivo
[2] = tested on: patients with hypercholesterolemia at moderate cardiovascular (CV) risk; assay: Example 2: safety (TEAEs, laboratory parameters, vital signs)
Text: The clinical laboratory data consisted of urinalysis and blood analysis, hematology (RBC count, red blood cell distribution width (RDW), reticulocyte count, hemoglobin, hematocrit, platelets, WBC count with differential blood count), standard chemistry (glucose, sodium, potassium, chloride, bicarbonate, calcium, phosphorous, urea nitrogen, creatinine, uric acid, total protein, LDH, albumin, γ Glutamyl Transferase [γGT]), Hepatitis C antibody, liver panel (ALT, AST, ALP, and total bilirubin), and CPK.
Safety endpoints—Vital signs measurement: Vital signs included: HR, systolic and diastolic BP in sitting position.
The safety analysis included all randomized and treated patients. Safety data were analyzed by descriptive statistics.

[3] = Week 12, individual patient 6 who reported high blood glucose
[4] = Week 24, individual patients (arbitrary numbers 1-5) who reported high blood glucose

mAb316P: human anti-PCSK9 antibody; heavy chain SEQ ID NO:5, light chain SEQ ID NO:9; HCVR SEQ ID NO:1, LCVR SEQ ID NO:6
Treatment-emergent neurocognitive disorders [1]: 3 (2.4%) patients (%)
Treatment-emergent neurologic AEs [1]: 11 (8.7%) patients (%)
Treatment-emergent skeletal muscle-related events resulting in early treatment discontinuation [1]: 19 (15.1%) patients (%)
back pain [1]: 4.0%
early termination due to musculoskeletal and connective tissues disorders SOC events [1]: 20 [15.9%] patients [%]
fatigue [1]: 4.8%
headache [1]: 4.8%
insomnia [1]: 5 (4.0%) reports (%)
muscle spasms [1]: 4.0%
muscular weakness [1]: 0.8%
palpitations [1]: 4 (3.2%) reports (%)
paraesthesia [1]: 3.2%
patients who prematurely discontinued study treatment due to a TEAE [1]: 23 (18.3%) patients (%)
patients who prematurely terminated study treatment due to adverse events [1]: 23 (18.3%) patients (%)
rate of AEs [1]: 82.5%
vertigo [1]: 6 (4.8%) reports (%)
safety and tolerability ([1]; sc): generally safe and well tolerated
Albumin ≦25 g/L ([2]; Laboratory parameters): 0/51
Aspartate aminotransferase >3× ULN ([2]; Laboratory parameters): 0/52
Creatine kinase >3× ULN ([2]; Laboratory parameters): 0/51
Creatine kinase >10× ULN ([2]; Laboratory parameters): 0/51
Glucose ≦70 mg/dL (3.9 mmol/L) and <LLN ([2]; Laboratory parameters): 0/52
Patients with any TEAE ([2]; Safety Population): 36 (69.2) n (%)
Patients with any TEAE leading to death ([2]; Safety Population): 0 n (%)
Patients with any TEAE leading to treatment discontinuation ([2]; Safety Population): 5 (9.6) n (%)
Patients with any treatment emergent SAE ([2]; Safety Population): 1 (1.9) n (%)
Arthralgia ([2]; TEAE): 3 (5.8) n (%)
Diarrhea ([2]; TEAE): 6 (11.5) n (%)
Dizziness ([2]; TEAE): 1 (1.9) n (%)
Headaches ([2]; TEAE): 3 (5.8) n (%)
Influenza ([2]; TEAE): 6 (11.5) n (%)
Nasopharyngitis ([2]; TEAE): 12 (23.1) n (%)
Nausea ([2]; TEAE): 3 (5.8) n (%)
Upper respiratory tract infection ([2]; TEAE): 2 (3.8) n (%)
Urinary tract infection ([2]; TEAE): 0 n (%)
back pain ([2]; TEAE): 1 (1.9) n (%)
General disorders and administration site conditions ([2]; TEAEs of interest): 5 (9.6) n (%)
Injection site reaction ([2]; TEAEs of interest): 1 (1.9) n (%)
Muscle disorders ([2]; TEAEs of interest): 2 (3.8) n (%)
Musculoskeletal and connective tissue disorders ([2]; TEAEs of interest): 8 (15.4) n (%)
Musculoskeletal and connective tissue disorders NEC ([2]; TEAEs of interest): 2 (3.8) n (%)
Musculoskeletal pain ([2]; TEAEs of interest): 1 (1.9) n (%)
Myalgia ([2]; TEAEs of interest): 2 (3.8) n (%)
muscle spasms ([2]; TEAEs of interest): 0 n (%)
Fasting blood glucose [2, 3]: 135 mg/dL
HbA1c [2, 3]: 6.3%
Fasting blood glucose [2, 4]: 121 mg/dL and 112 mg/dL (2×) and 70 mg/dL and 183 mg/dL
HbA1c [2, 4]: 6.5% and 5.9% (2×) and 6.2% and 7.7%
Muscle-related AEs ([2]; discussion): 4%
injection related AEs ([2]; disposable autoinjector): < 2%
Muscle-related TEAEs ([2]; in vivo): 2 (4%) patients (%)
overall percentage of patients who experienced at least one TEAE ([2]; in vivo): 69%
patients with abnormalities in vital signs (blood pressure, heart rate) ([2]; in vivo): no patients
patients with blood glucose >126 mg/dL (7 mmol/L) ([2]; in vivo): 6 patients
patients who experienced at least 1 LDL-C value<25 mg/dL ([2]; mAb316P 75 mg Q2W): Three
tolerability and safety ([2]; overall conclusion): tolerability and safety comparable with ezetimibe
